Assay results published in patent US20260069689A1 (Regeneron, published 2026).
Changes are numbered by the printed parent chain.

B1: mAb14235 (antibody, V domains shown)
VH: QITLKESGPTLVKPTQTLTLTCTFSGFSLNTGGVGVGWIRQPPGNALEWLALIYWDDDKRYNPSLKTRLTISKDTSKNQVVLTMTNMDPVDTATYFCAHLTIAVIVDFWGQGTLVTVSS
VL: QSALTQPASVSGSPGQSITISCTATSSDVGTYNYVSWFQHHPGKAPKLMIYEVTNRPSGVSNRFSGSKSGNTASLTISGLQAEDEADYYCSSYTTTSIVFGGGTKLTVLG
B2: mAb14284 (antibody, V domains shown)
VH: QITLKESGPTLVKPTQTLTLTCTFSGFSFSTSGVGVGWIRQPPGKTLEWLALIYWDDDKRYSPSLKSRLTITKDTSKNQVVLTMTNMDPVDTATYFCAHHGIPTIFGYWGQGALVTVSS
VL: B1 VL with A24G, V29L, T31V, Y32F, F38Y, H40Q, T96S, I98T
B3: mAb14294 (antibody, V domains shown)
VH: EVQLVESGGGLVQPGGSLRLSCAASGFTFSNHWMDWVRQAPGKGLVWVSRINSDGSSTDYADSVRGRFTMSRDNAKNTLYLQMSSLRAEDTAVYYCAREGMIFGAVIIPGWYFDLWGRGALVTVSS
VL: EIVLTQSPGTLSLSPGERATLSCRASQSVSSSQLAWYQQKPGQAPRLLIYGASSRATGIPDRFSGSGSGTDFTLTISRLEPEDFAVYYCQQYDSFGQGTKLEIKR
B4: mAb14258 (antibody, V domains shown)
VH: QLQLQESGPGLVKPSETLSLICTGSGDSISSSHYYWGWIRQPPGKGLEWIGSTYFSGSTYYNPSLKSRVSISVDTSKNQVSLKLISVTAADTAVYYCAREMGATLGDYWGPGTLVTVSS
VL: QSVLTQPPSASGTPGQRVTISCSGSSSNIGNNYVYWYQQFPGTTPRLLIYRNNERPSGVPDRFSGSKSGTSASLVISGLRSEDEADYYCAAWDDSLSAHYVFGTGTKVTVLG
B5: mAb14283 (antibody, V domains shown)
VH: QVQLQESGPGLVKPSGTLSLTCDVSGGSISSNNWWSWVRQRPGKGLQWIGEIYHNENTNYNPSLKSRVIMSIDKSKNQFSLKLTSVTAADTAVYYCARGDVLDWFDPWGQGTLVTVSS
VL: QSALTQPASVSGSPGQSTTISCTGTSSDVGGYNYVSWYQQYPGKAPKLMIYDVTNRPSGVSHRFSGSKSGNTASLTISGLQAEDEADYYCSSYTSSSTVIFGGGTKLTVLG
B6: mAb14289 (antibody, V domains shown)
VH: QVQLVQSGPEVKKPGASVKVSCKASGYTFTSYAISWVRQAPGQGLEWMGWISAYNGNTNYAQKLQGRVTMTTDTFTSTAYMELRSLRSDDTAVYYCAVPADHITFDYWGQGTLVTVSS
VL: EIVLTQSPGTLSLSPGERATLSCRASQSVSSYLAWYQQKPGQAPRLLIHGASSRATGIPDRFSGSGSGTDFTLTISRLEPEDFAVYYCQQYGSSFLTFGGGTKVEIKR
B7: mAb14312 (antibody, V domains shown)
VH: EVQLVESGGGLVQPGGSLRLSCAASGFTVSRSYMTWVRQAPGKGLEWVSVIFTGGRTDHADSVKGRFTISRHNSKNTLYLQMNSLRTEDTAVYYCARVAIVGATGAFDIWGQGTMVTVSS
VL: QSVLTQPPSVSGAPGQRVTISCTGSSSNIGAGDDVHWYQQLPGTAPKLLIYGNSNRPSGVPDRFSGSKSGTSASLAITGLQAEDEADYYCQSYDSSLSGSVVFGGGTKLTVLG
B8: mAb14284 (antibody, V domains shown)
VH: B2 VH
VL: B1 VL with A24G, V29L, T31V, Y32F, F38Y, H40Q, T96S, I98T
B9: mAb15150 (antibody, V domains shown)
VH: EVQLVETGGGLIQPGGSLRLSCAAPGFIVSSNYMSWVRQAPGKGLEWVSLLYPGGSTYYADSVKGRFTISRDNSKNTLYLQMNSLRADDTAVYYCARVLPIVEDHFDYWGQGTLVTVSS
VL: DIQLTQSPSFLSASVGDRVTITCRASQGMSSYLAWYQKKPGKAPKLLIYGATILQSGVPSRFSGSGSGTEFTLTISSLQPEDFATYYCQQLNSDPLYMYTFGQGTKLEIKR
B10: mAb15151 (antibody, V domains shown)
VH: QVQLVESGGGVVQPGRSLRLSCAASGFVFNSYGMHWVRQAPGKGLEWVAVLWYEGSKNYYADSVKGRFTISRDNSKNTLYLQMNSLRAEDTAVYYCARHGSGSFFGYYLDYWGQGTLVTVSS
VL: DIQMTQSPSSLSASVGDRVTITCRASHNINDFLNWYQQKPGKAPRLLIYAASSLQSGVPSRFSGSGSGTDFTLTISSLQPEDFATYYCQESYTTPPTFGQGTKLEIKR
B11: mAb15170 (antibody, V domains shown)
VH: EVQLVESGGGLVQPGGSLRLSCAATGITVSSNYMSWVRQAPGKGLEWVSLIYSGGSTFYADSVKGRFTISRHNSKNTLYLQMSSLRAEDTAVYYCARDLVDFGMDVWGQGTTVTVSS
VL: DIQLTQSPSSLSASVGDRVTITCRASQGISNYLAWYQQKPGKAPKLLIYAASTLQSGVPSRFSGSGSGTDFTLTISSLQPEDFGTYYCQQLNSDSPTFGQGTKVEIKR
B12: mAb15165 (antibody, V domains shown)
VH: EVQLVESGGGLVQPGGSLRLSCAASGFTVSSNYMSWVRQAPGKGLEWVSAIYSGDSTYYADSVKGRFTISKDNSKNTLYLQMNSLRGEDTAVYYCARLGGALQAYDGAFDYWGQGTLATVSS
VL: QSALTQPASVSGSPGQSITISCTGTSSDFGSYNLVSWYQQHPGKAPKLMIYEGNKRPSGVSIRFSGSKSGNTASLTISGLQAEDEADYYCSSYAGSSTWVFGGGTKLTVLG
B13: mAb15166 (antibody, V domains shown)
VH: EVQLVESGGGLVQPGGSLRLSCAASGFTVTSNYMSWVRQAPGKGLEWVSAIYSGESTYYADSVKGRFTISRDSSKNTLYLQMNSLRVEDTAVYYCASIHDYSNYVGGFDPWGQGTLVTVSS
VL: B12 VL with T25P, N54T, I62N
B14: mAb14312 (antibody, V domains shown)
VH: B7 VH
VL: B7 VL
B15: mAb15150 (antibody, V domains shown)
VH: B9 VH
VL: B9 VL
B16: mAb13459 (antibody, V domains shown)
VH: EVQLVESGGGLVQPGRSLRLSCAASGFTFDDYAMHWVRQAPGKGLEWVSGISWNSGSIGYADSVKGRFTISRDNAKNSLYLQMNSLRAEDTALYYCAKDIGITTPYWGQGTLVTVSS
VL: AIQMTQSPSSLSASVGDRVTITCRASQDIRNDLGWYQQKPGKAPKLLIYSASSLQTGVPSRFSGSGSGTDFTLTISSLHPEDFATYYCLQDYNYVWTFGQGTKVEIKR

Biological target: T1, SARS-COV-2 RBD extracellular domain expressed with a C-terminal mouse IgG2a Fc (SARS-CoV-2)
Assay: Biacore SPR, mAb captured on anti-hFc, 25 C

First: B1
Second: B2
The Kd of the first is 2.5-fold higher: 62.7 pM for the first, 25.5 pM for the second. The second binds more tightly here.

Compared with B3, B4 is 100-fold higher in Kd: 29.4 pM for the first, 3040 pM for the second.

B5 and B6 are within 1.5-fold of each other in Kd: 52.4 pM for the first, 62.8 pM for the second.

For B7, the Kd was 33.4 pM.

Going from B1 to B2, the koff falls from 6.89e-05 s⁻¹ to 2.12e-05 s⁻¹ (3.2-fold).

Going from B3 to B4, the koff rises from 2.68e-05 s⁻¹ to 0.000109 s⁻¹ (4.1-fold).

B5 and B6 are within 1.5-fold of each other in koff: 8.14e-05 s⁻¹ for the first, 8.95e-05 s⁻¹ for the second.

With B7 the koff was 5.6e-05 s⁻¹.

B1 and B2 are within 1.5-fold of each other in kon: 1.1e+06 M⁻¹ s⁻¹ for the first, 831000 M⁻¹ s⁻¹ for the second.

First: B3
Second: B4
The kon of the first is 26-fold higher: 911000 M⁻¹ s⁻¹ for the first, 35600 M⁻¹ s⁻¹ for the second.

B5 and B6 are within 1.5-fold of each other in kon: 1.55e+06 M⁻¹ s⁻¹ for the first, 1.43e+06 M⁻¹ s⁻¹ for the second.

B7 gave a kon of 1.68e+06 M⁻¹ s⁻¹.

Going from B1 to B2, the t½ rises from 2.79 h to 9.08 h (3.3-fold).

Compared with B3, B4 is 4.1-fold lower in t½: 7.17 h for the first, 1.77 h for the second.

B5 and B6 are within 1.5-fold of each other in t½: 2.37 h for the first, 2.15 h for the second.

With B7 the t½ was 3.44 h.

Biological target: T2, SARS-CoV2 Spike ecto foldon Trimer expressed with a C-terminal myc-myc-hexahistidine (SARS-CoV-2, UniProt P0DTC2 14-1213)
T2 construct: extracellular domain
Assay: SPR Biacore, mAb captured by anti-hFc, 25C

B8 and B9 cannot be ordered by Kd: 16.1 pM for the first, ≤ 31.5 pM for the second.

First: B10
Second: B11
The Kd of the first is 1.7-fold higher: 187 pM for the first, 110 pM for the second. The second binds more tightly here.

First: B12
Second: B13
The Kd of the first is 23-fold lower: 27.9 pM for the first, 630 pM for the second. The first binds more tightly here.

For B14, the Kd was 27.2 pM.

Going from B8 to B9, the koff falls from 1.31e-05 s⁻¹ to ≤ 1e-05 s⁻¹.

Compared with B10, B11 is 4.9-fold lower in koff: 6.26e-05 s⁻¹ for the first, 1.29e-05 s⁻¹ for the second.

Compared with B12, B13 is 16-fold higher in koff: 1.09e-05 s⁻¹ for the first, 0.000174 s⁻¹ for the second.

With B14 the koff was 5.24e-05 s⁻¹.

Going from B8 to B9, the kon falls from 812000 M⁻¹ s⁻¹ to 317000 M⁻¹ s⁻¹ (2.6-fold).

Going from B10 to B11, the kon falls from 335000 M⁻¹ s⁻¹ to 120000 M⁻¹ s⁻¹ (2.8-fold).

B12 and B13 are within 1.5-fold of each other in kon: 391000 M⁻¹ s⁻¹ for the first, 276000 M⁻¹ s⁻¹ for the second.

Work on B14 yielded a kon of 1.93e+06 M⁻¹ s⁻¹.

B8 and B9 are within 1.5-fold of each other in t½: 14.7 h for the first, 19.2 h for the second.

Compared with B10, B11 is 4.8-fold higher in t½: 3.08 h for the first, 14.9 h for the second.

Going from B12 to B13, the t½ falls from 17.6 h to 1.1 h (16-fold).

With B14 the t½ was 3.67 h.

Biological target: T2, SARS-CoV2 Spike ecto foldon Trimer …
Assay: SPR Biacore, mAb captured by anti-hFc, 37C

B8 and B9 are within 1.5-fold of each other in Kd: 25.1 pM for the first, 20.2 pM for the second.

First: B10
Second: B11
The Kd of the first is 11-fold higher: 129 pM for the first, 11.8 pM for the second. The second binds more tightly here.

B12 and B13 are within 1.5-fold of each other in Kd: 54.2 pM for the first, 54 pM for the second.

With B14 the Kd was 56.3 pM.

Compared with B8, B9 is 1.7-fold higher in koff: 2.05e-05 s⁻¹ for the first, 3.42e-05 s⁻¹ for the second.

First: B10
Second: B11
The koff of the first is 25-fold higher: 0.000248 s⁻¹ for the first, 1e-05 s⁻¹ for the second.

B12 and B13 are within 1.5-fold of each other in koff: 0.000115 s⁻¹ for the first, 8.32e-05 s⁻¹ for the second.

In the case of B14, the koff is reported as 5.44e-05 s⁻¹.

Going from B8 to B9, the kon rises from 814000 M⁻¹ s⁻¹ to 1.68e+06 M⁻¹ s⁻¹ (2.1-fold).

First: B10
Second: B11
The kon of the first is 2.3-fold higher: 1.92e+06 M⁻¹ s⁻¹ for the first, 846000 M⁻¹ s⁻¹ for the second.

B12 and B13 are within 1.5-fold of each other in kon: 2.12e+06 M⁻¹ s⁻¹ for the first, 1.54e+06 M⁻¹ s⁻¹ for the second.

With B14 the kon was 966000 M⁻¹ s⁻¹.

First: B8
Second: B9
The t½ of the first is 1.7-fold higher: 9.41 h for the first, 5.63 h for the second.

First: B10
Second: B11
The t½ of the first is 25-fold lower: 0.777 h for the first, 19.2 h for the second.

B12 and B13 are within 1.5-fold of each other in t½: 1.67 h for the first, 2.31 h for the second.

B14 was tested, and the t½ was 3.54 h.

Biological target: T1, SARS-COV-2 RBD extracellular domain …
Assay: Biacore SPR, mAb captured on anti-hFc, 37 C

First: B1
Second: B2
The Kd of the first is 2.3-fold higher: 61.2 pM for the first, 27 pM for the second. The second binds more tightly here.

B3 and B15 are within 1.5-fold of each other in Kd: 38.6 pM for the first, 29.6 pM for the second.

B16 and B5 are within 1.5-fold of each other in Kd: 93.9 pM for the first, 63.1 pM for the second.

Going from B6 to B7, the Kd falls from 90.7 pM to 34.7 pM (2.6-fold).

Going from B1 to B2, the koff falls from 6.68e-05 s⁻¹ to 2.24e-05 s⁻¹ (3-fold).

B3 and B15 are within 1.5-fold of each other in koff: 3.5e-05 s⁻¹ for the first, 2.8e-05 s⁻¹ for the second.

B16 and B5 are within 1.5-fold of each other in koff: 9.24e-05 s⁻¹ for the first, 9.59e-05 s⁻¹ for the second.

Compared with B6, B7 is 2.2-fold lower in koff: 0.000128 s⁻¹ for the first, 5.8e-05 s⁻¹ for the second.

B1 and B2 are within 1.5-fold of each other in kon: 1.09e+06 M⁻¹ s⁻¹ for the first, 830000 M⁻¹ s⁻¹ for the second.

B3 and B15 are within 1.5-fold of each other in kon: 906000 M⁻¹ s⁻¹ for the first, 946000 M⁻¹ s⁻¹ for the second.

Compared with B16, B5 is 1.5-fold higher in kon: 985000 M⁻¹ s⁻¹ for the first, 1.52e+06 M⁻¹ s⁻¹ for the second.

B6 and B7 are within 1.5-fold of each other in kon: 1.41e+06 M⁻¹ s⁻¹ for the first, 1.67e+06 M⁻¹ s⁻¹ for the second.

Going from B1 to B2, the t½ rises from 2.88 h to 8.6 h (3-fold).

B3 and B15 are within 1.5-fold of each other in t½: 5.5 h for the first, 6.88 h for the second.

B16 and B5 are within 1.5-fold of each other in t½: 2.08 h for the first, 2.01 h for the second.

First: B6
Second: B7
The t½ of the first is 2.2-fold lower: 1.5 h for the first, 3.32 h for the second.
